Experimental data as given in patent CN110156890A (UNIV SUZHOU, dated 2019).

Tests used:
Sema7A_truncated抗原蛋白 = target: T1, Sema7A_truncated抗原蛋白 (mouse, UniProt Q9QUR8 59-219); assay: ELISA, 1 ug antigen coated, antibody dilution series
T1 construct: Truncated part of mouse Sema7A chosen for antigenicity, expressed in E. coli from pET28a; also called Sema7A-His; not shown: His tag from pET28a (Sema7A-His)
T1 sequence: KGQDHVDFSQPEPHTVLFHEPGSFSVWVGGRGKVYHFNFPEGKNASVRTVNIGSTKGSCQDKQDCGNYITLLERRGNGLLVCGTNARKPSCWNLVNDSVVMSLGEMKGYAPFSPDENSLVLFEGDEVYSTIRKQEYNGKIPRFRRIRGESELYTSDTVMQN

小鼠Sema7A蛋白 = target: T2, 小鼠Sema7A蛋白 (mouse, UniProt Q9QUR8 45-646); assay: western blot of mouse lung tissue
T2 construct: Endogenous protein of mouse lung tissue, denatured on a western blot; also called Semaphorin7A
T2 sequence (looked up): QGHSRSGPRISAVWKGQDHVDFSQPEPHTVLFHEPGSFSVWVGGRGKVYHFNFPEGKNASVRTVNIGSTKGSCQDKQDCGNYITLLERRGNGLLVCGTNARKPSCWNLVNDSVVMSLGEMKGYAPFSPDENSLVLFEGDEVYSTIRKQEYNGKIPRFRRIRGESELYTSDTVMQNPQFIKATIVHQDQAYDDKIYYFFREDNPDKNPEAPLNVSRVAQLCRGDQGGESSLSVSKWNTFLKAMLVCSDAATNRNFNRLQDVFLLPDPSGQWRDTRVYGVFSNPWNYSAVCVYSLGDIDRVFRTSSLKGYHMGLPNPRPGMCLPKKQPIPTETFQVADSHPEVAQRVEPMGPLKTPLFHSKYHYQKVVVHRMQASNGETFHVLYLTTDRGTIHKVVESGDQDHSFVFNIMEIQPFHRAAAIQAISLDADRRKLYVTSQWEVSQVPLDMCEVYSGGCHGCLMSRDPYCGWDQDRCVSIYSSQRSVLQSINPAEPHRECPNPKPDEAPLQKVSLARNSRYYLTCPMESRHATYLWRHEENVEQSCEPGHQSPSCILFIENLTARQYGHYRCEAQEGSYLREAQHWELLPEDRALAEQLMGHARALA

binding result (Sema7A_truncated抗原蛋白): binds
binding result (小鼠Sema7A蛋白): binds
B1: Semaphorin7A单克隆抗体2567-1 (antibody, V domains shown)
VH: QVQLQQSGAELVKPGASVKLSCKASGYTFTSYYMYWVKQRPGQGLEWIGEINPSNGDTNFNEKFKSKATLTVDKSSSTAYMQLSSLTSEDSAVYYCTTPARATFAYWGQGTLVTVSA
VL: DVVMTQTPLSLPVSLGDQASISCRSSQSLVHSNGNTYLHWYLQKPGQSPKLLIYKVSNRFSGVPDRFSGSGSGTDFTLKISRVEAEDLGVYFCSQSTHVPYTFGGGTKLEIK
notes: also called Sema7A抗体2567-1
